Data from patent publication US20230072897A1, “ANTI-B7-H4 ANTIBODY-DRUG CONJUGATE AND MEDICINAL USE THEREOF” (SHANGHAI HANSOH BIOMEDICAL CO., LTD., priority 2019, published 2023).

Molecular target: human B7-H4 on MX-1 cells (human) (UniProt Q7Z7D3)
Assay: cell-based or functional assay

Sequence of UniProt Q7Z7D3 (Q7Z7D3 25-282): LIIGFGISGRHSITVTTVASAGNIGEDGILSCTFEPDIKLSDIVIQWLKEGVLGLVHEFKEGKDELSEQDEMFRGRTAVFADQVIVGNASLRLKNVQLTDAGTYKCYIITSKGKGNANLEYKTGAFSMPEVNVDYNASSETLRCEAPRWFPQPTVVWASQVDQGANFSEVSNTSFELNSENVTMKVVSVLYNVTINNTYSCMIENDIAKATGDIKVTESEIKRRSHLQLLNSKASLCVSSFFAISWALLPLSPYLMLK

**Q.** Which results are given for IgG control (antibody)?
**A.** Humanized antibody-mediated endocytosis efficiency of B7-H4 protein, 0 hour (%): 0%; Humanized antibody-mediated endocytosis efficiency of B7-H4 protein, 0.5 hour (%): 0.1%; Humanized antibody-mediated endocytosis efficiency of B7-H4 protein, 2 hours (%): 0.9%
